Source: PMC6009097, “Design and biological characterization of novel cell-penetrating peptides preferentially targeting cell nuclei and subnuclear regions” (Beilstein Journal of Organic Chemistry, 2018)
Marks after values point to notes of the source that are not given here. Where no end group is shown, it is not given here.

Assays:
HeLa cells [1] = assay: Cellular uptake, confocal fluorescence microscopy; assay type: cell-based; conditions: 1 μM CF-labeled peptide, 37 °C; for cellular uptake (microscopy) at 1 μM: 30 and 120 min; for intracellular distribution at 1 μM: 30 or 120 min
[2] = Circular dichroism spectroscopy (secondary structure); assay type: physicochemical; conditions: 10 mM phosphate buffer pH 7.0 with TFE (50%), peptide 20 µM
Procedure: First, we performed a structural analysis by diluting all peptides to a concentration of 20 μM in phosphate buffer (pH 7.0), with or without the presence of the secondary structure inducing solvent trifluoroethanol (TFE).
Figure 1 Circular dichroism spectra of the novel peptides solved in 10 mM phosphate buffer (pH 7) (A), or phosphate buffer with the addition of TFE (50%) (B). Peptide concentration was 20 µM. (C) Helical wheel projections of the peptides N50-sC18* and NrTP-sC18*, respectively.
All peptides were analyzed in 10 mM potassium phosphate buffer (pH 7.0) with or without the addition of TFE (1:1 dilution) using a peptide concentration of 20 µM. Peptides were measured in a 0.1 cm quartz cuvette with a sensitivity of 100 mdeg in the range from 260 to 180 nm in 0.5 nm intervals. The scanning mode was continuous and a scanning speed of 50 nm/min was chosen. The results of pure buffer were subtracted from the spectra of the peptides. The ratio between the molar ellipticity at 222 nm and 207 nm was used to confirm an α-helical structure of peptides.

MCF-7 cells [3] = assay: Cellular uptake, confocal fluorescence microscopy; assay type: cell-based; conditions: MCF-7, 10 µM CF-labeled peptide, 30 min; for cellular uptake (microscopy) / intracellular distribution: 37 °C, confocal fluorescence; for cellular uptake (microscopy): trypan blue quench
Procedure: (§1) Next, we analyzed the intracellular fate of the new peptide variants using confocal fluorescence microscopy. Thus, MCF-7 and HeLa cells were incubated with 10 µM peptide solutions at 37 °C and inspected after 30 min (Figure 3).
(§2) Figure 3 Cellular uptake in HeLa and MCF-7 cells. Cells were incubated for 30 min with 10 µM of CF-labeled peptide solutions. Green: CF-labeled peptide; blue: Hoechst 33342 nuclear stain; scale bar is 10 µm.
(§3) For microscopic analyses, a confocal laser scanning system (Nikon D-Eclipse C1) with an inverted microscope (Nikon Eclipse Ti) was used. Pictures were taken with a 60× oil immersion objective (N.A. 1.4, Plan APO VC; Nikon) using the software EZ-C1 3.91 from Nikon.
(§4) Cells were seeded in 350 μL medium in an 8-well ibidi plate (HeLa 45,000, MCF-7 70,000 cells per well) and were grown to 70–80% confluency. Then, the medium was removed and the cells were treated with the peptides and substances in various concentrations for the requested time. Cells were incubated at 4 °C or 37 °C and 10 min prior to the end of incubation 0.6 μL of Hoechst stain (bisbenzimide H33342, 1 mg/mL in H2O, sterile filtered) was added to each well to stain the cell nuclei. After removing the solutions, cells were quenched with 200 μL of 150 μM trypan blue solution (in acetate buffer) for 30 s. The stain was removed and the cells were washed twice with medium. After adding 300 μL of fresh medium, pictures were taken using a fluorescence confocal microscope. Images were edited in Image J 1.43m.

HeLa cells [4] = assay: Cellular uptake, confocal fluorescence microscopy; assay type: cell-based; conditions: 10 µM CF-labeled peptide, 30 min, 37 °C; for cellular uptake (microscopy): trypan blue quench
Procedure: as §1, §2, §3, §4

HeLa cells [5] = assay: Resazurin-based cell viability assay; conditions: 24 h; for concentration up to which no significant toxicity was observed: 37 °C, serum-free medium, resazurin read-out, n = 3 in triplicate
Procedure: (§5) In the next step, the cytotoxicity profiles of the novel peptide chimera were investigated. Therefore, we chose two different cancer cell lines, namely breast cancer MCF-7 and cervix carcinoma HeLa cells, which were exposed for 24 h to various concentrations of the peptides sC18*, N50, N50-sC18*, NrTP and NrTP-sC18* (Figure 2).
(§6) Figure 2 Cytotoxicity profiles of the peptides in MCF-7 and HeLa cells. Cells were incubated for 24 h with different concentrations of peptide solutions. Untreated cells served as negative control, cells treated with 70% ethanol as positive control. Values from the positive control were subtracted from all data, and the untreated cells were set to 100%; assays were performed with n = 3 in triplicate.
(§7) A total volume of 200 μL of cells (HeLa 40’000, MCF-7 50’000 cells per well) were seeded in 96-well plates and grown to 70–80% confluency. Afterwards, they were incubated with peptide or doxorubicin solutions (diluted in serum-free medium) in a total volume of 100 μL. In the wells that served as positive and negative controls, the medium was replaced by fresh medium without FBS. The plates were incubated for 24 h or 48 h at 37 °C. Afterwards, the positive control was treated with 100 μL of 70% EtOH for 10 min, and then all cells were washed with PBS. Cells were covered with 100 μL of a 10% resazurin solution in medium without FBS and incubated for 1–2 h at 37 °C. Afterwards, fluorescence was quantified by using a Tecan infinite M200 plate reader (excitation: 550 nm, emission: 595 nm).
To achieve comparably results, the positive control was subtracted from all data and the negative control was set to 100%, so that the results of the peptide-treated cells represent relative cell viability values in %. Experiments were done in triplicate.
Peptide solutions of 1, 5, 10,
25, 40, 55, 70, 85 and 100 µM were incubated with HeLa cells (24 h, 37 °C). Afterwards a resazurin-based cell
viability assay was performed according to the experimental part.
(1 picture or pasted object on this page, not shown here)

MCF-7 cells [6] = assay: Cytotoxicity of doxorubicin co-incubated with peptides (resazurin viability assay); assay type: cell-based; conditions: MCF-7, peptide 10 μM + DOX 1 μg/mL, 48 h
Procedure: Fluorescence microscopic images after 30 min incubation in HeLa (A) and MCF-7 (B) cells with 10 μM CF-labeled peptides N50-sC18* or NrTP-sC18* co-incubated with 10 μg/mL doxorubicin at 37 °C, respectively. Cells treated with DOX alone served as negative control; Green: CF-labeled peptide; blue: Hoechst 33342 nuclear stain; red: doxorubicin; scale bar is 10 µm. (C) Cells were incubated for 48 h with DOX (1 µg/mL), or solutions out of peptides (10 µM) and DOX (1 µg/mL), or peptide solutions (10 µM) alone. Untreated cells served as negative control, cells treated for 10 min with 70% ethanol as positive control. Experiments were conducted in triplicate with n = 2.
Herein, the drug alone (1 μg/mL) or in presence of 10 μM solutions of the peptides sC18*, N50-sC18* and NrTP-sC18*, respectively, were incubated for 48 h with MCF-7 cells.
as §7
Experiments were done in triplicate.

[7] = test system: several different cell lines; conditions: cited from earlier work
Procedure: Within their studies, the authors used higher concentrations, longer incubation times and other cell lines, what could probably explain the different results obtained in our study. In fact, it is very likely that working with increased concentrations of the NrTP sequence could probably improve the cell-penetrating capability of this peptide. Also for the N50 sequence alone, the internalization ability in several different cell lines was already determined [[2 ...

MCF-7 cells [8] = assay: Resazurin-based cell viability assay; conditions: 24 h, 37 °C, serum-free medium, resazurin read-out, n = 3 in triplicate
Procedure: as §5, §6
A total volume of 200 μL of cells (HeLa 40’000, MCF-7 50’000 cells per well) were seeded in 96-well plates and grown to 70–80% confluency. Afterwards, they were incubated with peptide or doxorubicin solutions (diluted in serum-free medium) in a total volume of 100 μL. In the wells that served as positive and negative controls, the medium was replaced by fresh medium without FBS. The plates were incubated for 24 h or 48 h at 37 °C. […] Afterwards, fluorescence was quantified by using a Tecan infinite M200 plate reader (excitation: 550 nm, emission: 595 nm). […]

MCF-7 cells [9] = assay: Cellular uptake quantified by flow cytometry; assay type: cell-based; conditions: MCF-7, 10 µM peptide, 30 min, 37 °C, serum-free medium, 10,000 cells, triplicate
Procedure: (§8) Figure 4 Cellular uptake in MCF-7 and HeLa cells was quantified by flow cytometry. Cells were incubated with 10 µM peptide solutions for 30 min at 37 °C.
(§9) Cells were seeded in 24-well plates (HeLa 170,000, MCF-7 200,000 cells per well) and grown to 70–80% confluency. Then, cells were treated with 400 μL of peptide solutions dissolved in serum-free medium for the appropriate time at 4 °C or 37 °C. Afterwards, the cells were washed twice with PBS and detached with Trypsin-EDTA 1× in PBS without phenol red for 3–5 min followed by adding 800 μL of indicator-free medium. Cells were resuspended and 200 μL of the suspension were transferred to a 96-well plate for measuring the fluorescence in the Guava® easyCyte flow cytometer (Merck). In each sample, 10,000 cells were measured and each experiment was done in triplicate. Cells treated with medium only served as negative control and their fluorescent signal was subtracted from all other samples in each set of experiment.

HeLa cells [10] = assay: Cellular uptake quantified by flow cytometry; assay type: cell-based; conditions: 10 µM peptide, 30 min, 37 °C, serum-free medium, 10,000 cells, triplicate
Procedure: as §8, §9

Substance | cellular uptake (microscopy) at 1 μM (HeLa cells [1]) | secondary structure (CD) [2] | cellular uptake (microscopy) (MCF-7 cells [3]) | cellular uptake (microscopy) (HeLa cells [4]) | concentration up to which no significant toxicity was observed (HeLa cells [5]; HeLa cells) [µM] | effect of the peptide on the toxic effect / efficacy of DOX (MCF-7 cells [6]) | internalization ability / uptake [7] | intracellular distribution at 1 μM (HeLa cells [1]) | R-value (ratio between the molar ellipticity at 222 nm and 207 nm) ([2]; CD) | intracellular distribution at 4 °C (MCF-7 cells [3]) | intracellular distribution (MCF-7 cells [3]) | intracellular distribution (HeLa cells [4]) | concentration up to which no toxic effects were observed (MCF-7 cells [8]) [µM] | number of viable cells after co-treatment with DOX (MCF-7 cells [6]; triplicate with n = 2) [%] | cellular uptake (flow cytometry) (MCF-7 cells [9]) | cellular uptake (flow cytometry) (HeLa cells [10]) | IC50 (HeLa cells [5]) [µM] | effect on cell viability at 50 µM (HeLa cells [5]; HeLa cells, 50 µM) | effect on cell viability at higher concentrations (HeLa cells [5]; HeLa cells, concentrations above 50 µM)
GLRKRLRKFRNK [sC18*, shortened version of the cell-penetrating peptide sC18, lacking its four C-terminal amino acids] | no uptake at all | α-helical character | only small dots were detectable | only small dots were detectable | ≤ 50 | could not enhance the efficacy of DOX |  |  |  |  |  |  |  |  |  |  |  |  | 
VQRKRQKLMP [N50, reference compound] | no uptake at all | random coil structure | not noticeable present | not noticeable present | ≤ 50 |  | very low |  |  |  |  |  |  |  |  |  |  |  | 
VQRKRQKLMPGLRKRLRKFRNK [N50-sC18*] |  | formed α-helices | entered the cells extremely efficiently compared to sC18* alone | entered the cells extremely efficiently compared to sC18* alone | ≤ 50 | significantly improved |  | diffusely distributed within the cytosol and the nuclei of HeLa cells, and after 120 min it mainly accumulated within the nuclei | 0.83 | mainly detectable within the nuclei | distributed within the whole cell cytosol, and accumulated particularly around the nucleus | distributed within the whole cell cytosol, and accumulated particularly around the nucleus | ≤ 100 | 30 | extremely high uptake | extremely high uptake |  |  | 
YKQCHKKGGKKGSGGLRKRLRKFRNK-NH2 [NrTP-sC18*] |  |  | entered the cells extremely efficiently compared to sC18* alone | entered the cells extremely efficiently compared to sC18* alone | ≤ 50 |  |  | accumulates in endosomes |  | evenly distributed throughout the whole cell, including strong accumulation in the nuclei | strong accumulation within the nucleoli | strong accumulation within the nucleoli | ≤ 100 |  | extremely high uptake | extremely high uptake | 53.7 ± 4.79 | seemed to affect cell viability | all cells were dead
